Measurements as given in paper PMC5575297, “Interaction of lipopolysaccharides at intermolecular sites of the periplasmic Lpt transport assembly” (Scientific Reports, 2017).

T1: LptC construct lacking the 23 residues long N-terminal transmembrane domain (E. coli), P0ADV9
T1 chain: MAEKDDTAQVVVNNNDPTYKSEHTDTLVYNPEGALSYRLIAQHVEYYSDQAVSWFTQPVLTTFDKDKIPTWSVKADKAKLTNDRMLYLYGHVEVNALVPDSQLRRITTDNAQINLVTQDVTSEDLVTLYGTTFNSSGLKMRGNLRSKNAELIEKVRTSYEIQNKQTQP

B1: LptC construct lacking the 23 residues long N-terminal transmembrane domain (domain or fragment, E. coli, UniProt P0ADV9 24-191, looked up)
chain: T1 chain
notes: LptC, E. coli, lacking the first 23 residues (transmembrane domain); For NMR the protein was isotope-labelled (2H, 13C, 15N, or AILV methyl-labelled) or unlabelled; also called LptC dimer; source: E. coli M15 [prep4], pQESH plasmid, purified (HiTrap, S75 SEC)
B2: LptAm (monomeric E. coli LptA mutant, LptA Δ160-185) (domain or fragment, UniProt P0ADV1 28-159, looked up)
chain: VTGDTDQPIHIESDQQSLDMQGNVVTFTGNVIVTQGTIKINADKVVVTRPGGEQGKEVIDGYGKPATFYQMQDNGKPVEGHASQMHYELAKDFVVLTGNAYLQQVDSNIKGDKITYLVKEQKMQAFSDKGKR
notes: LptA, E. coli, residues 28-159; lacks the last C-terminal β-strand (Δ160-185); For NMR the protein was isotope-labelled (2H, 13C, 15N) or unlabelled; the purified protein is 28-159; also called monomeric LptA; C-terminally truncated LptA; source: E. coli BL21(DE3), pET21b, purified (HiTrap, S75 SEC)

What was measured:
[1] = molecular target: T1, LptC construct lacking the 23 residues …; assay: SAXS; beamline BM29 (ESRF), 20 °C, NMR buffer with 0.5% w/v sucrose; LptAm 1.6 and 2.4 mg/ml, LptC 1, 2 and 3 mg/ml, LptAm:LptC 1:1 molar ratio at 3.6 and 5.4 mg/ml; extrapolated to zero dilution; settings: remark: other sources report otherwise
[2] = molecular target: B2; assay: SEC-MALS; 40 µl injected on Superdex S200 (10/300GL) in buffer B (50 mM sodium phosphate, 150 mM NaCl, pH 8) at 25 °C; proteins alone and LptC-LptAm mixtures (also with a two-times molar excess of LptAm); protein conjugate two-component analysis for the complex; settings: both partners purified
[3] = molecular target: T1, LptC construct lacking the 23 residues …; assay: as above; settings: remark: other sources report otherwise
[4] = molecular target: B2; assay: NMR titration; isotope-labelled LptC or LptAm with the unlabelled partner (1.2 molar equivalents); 2D BEST-TROSY / methyl spectra; 35 °C, buffer B with 5% D2O; submillimolar concentrations; settings: both partners purified
[5] = molecular target: B1; assay: SAXS; beamline BM29 (ESRF), 20 °C, NMR buffer with 0.5% w/v sucrose; LptAm 1.6 and 2.4 mg/ml, LptC 1, 2 and 3 mg/ml, LptAm:LptC 1:1 molar ratio at 3.6 and 5.4 mg/ml; extrapolated to zero dilution; settings: both partners purified

## B1
[1]
  stoichiometry N: 2
[2]
  stoichiometry N: 2 LptC:LptAm (2:1)
[3]
  stoichiometry N: 2
[4]
  stoichiometry N: ~1 LptC:LptAm molar ratio

## B2
[5]
  binding result: binds
